Columns and labels:
ima3_human KPNA4 [1] = target: ima3_human KPNA4 (UniProt O00629)
ima3_human KPNA4 [2] = target: ima3_human KPNA4 (UniProt O00629); remark: listed apart in the source
eps15_human EPS15 = eps15_human EPS15 (UniProt P42566)
src_human SRC = src_human SRC (UniProt P12931)
oxsr1_human OXSR1 = oxsr1_human OXSR1 (UniProt O95747)
G3BP2 = G3BP2 (UniProt Q9UN86)
terf1_human TERF1 = terf1_human TERF1 (UniProt P54274)
terf1_human TERF1, sequence (P54274 whole entry): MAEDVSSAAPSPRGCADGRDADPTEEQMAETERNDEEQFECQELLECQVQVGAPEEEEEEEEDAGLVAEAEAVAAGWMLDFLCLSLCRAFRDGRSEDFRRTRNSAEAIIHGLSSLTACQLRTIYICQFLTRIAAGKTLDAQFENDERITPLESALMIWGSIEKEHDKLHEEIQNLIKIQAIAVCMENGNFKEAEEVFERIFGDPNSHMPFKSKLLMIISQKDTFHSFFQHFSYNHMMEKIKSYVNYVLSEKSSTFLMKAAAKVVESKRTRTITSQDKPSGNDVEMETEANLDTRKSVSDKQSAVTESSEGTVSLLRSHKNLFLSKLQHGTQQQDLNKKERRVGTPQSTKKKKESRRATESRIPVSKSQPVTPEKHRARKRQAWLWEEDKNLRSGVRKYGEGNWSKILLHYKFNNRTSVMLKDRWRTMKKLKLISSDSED

oxsr1_human OXSR1, sequence (O95747 whole entry, looked up): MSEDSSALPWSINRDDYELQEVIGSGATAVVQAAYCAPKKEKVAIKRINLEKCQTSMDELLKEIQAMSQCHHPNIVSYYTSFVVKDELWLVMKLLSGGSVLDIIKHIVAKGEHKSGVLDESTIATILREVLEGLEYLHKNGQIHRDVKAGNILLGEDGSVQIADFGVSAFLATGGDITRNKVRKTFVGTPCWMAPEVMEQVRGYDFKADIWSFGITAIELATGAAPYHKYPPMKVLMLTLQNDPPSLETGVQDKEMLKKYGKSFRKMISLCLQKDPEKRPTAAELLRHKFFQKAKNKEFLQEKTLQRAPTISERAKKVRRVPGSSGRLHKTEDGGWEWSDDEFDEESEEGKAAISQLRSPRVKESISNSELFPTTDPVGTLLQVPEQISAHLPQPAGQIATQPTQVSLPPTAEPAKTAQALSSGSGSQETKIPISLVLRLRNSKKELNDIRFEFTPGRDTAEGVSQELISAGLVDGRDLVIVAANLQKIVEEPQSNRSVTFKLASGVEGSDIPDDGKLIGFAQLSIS
ima3_human KPNA4, sequence (O00629 whole entry): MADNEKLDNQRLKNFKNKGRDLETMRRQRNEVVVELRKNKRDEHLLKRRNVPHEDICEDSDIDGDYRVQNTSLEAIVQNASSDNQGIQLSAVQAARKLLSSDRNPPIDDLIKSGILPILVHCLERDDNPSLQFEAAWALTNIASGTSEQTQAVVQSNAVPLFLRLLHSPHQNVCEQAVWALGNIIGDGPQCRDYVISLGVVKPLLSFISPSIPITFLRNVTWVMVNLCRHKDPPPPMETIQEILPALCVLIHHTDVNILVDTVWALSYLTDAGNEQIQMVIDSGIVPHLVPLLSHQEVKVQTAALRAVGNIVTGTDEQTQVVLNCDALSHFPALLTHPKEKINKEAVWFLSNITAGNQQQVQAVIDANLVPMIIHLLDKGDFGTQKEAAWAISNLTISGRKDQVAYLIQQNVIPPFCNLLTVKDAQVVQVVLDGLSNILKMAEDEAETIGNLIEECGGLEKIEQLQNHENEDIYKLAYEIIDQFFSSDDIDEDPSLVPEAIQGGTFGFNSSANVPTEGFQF
G3BP2, sequence (Q9UN86 whole entry): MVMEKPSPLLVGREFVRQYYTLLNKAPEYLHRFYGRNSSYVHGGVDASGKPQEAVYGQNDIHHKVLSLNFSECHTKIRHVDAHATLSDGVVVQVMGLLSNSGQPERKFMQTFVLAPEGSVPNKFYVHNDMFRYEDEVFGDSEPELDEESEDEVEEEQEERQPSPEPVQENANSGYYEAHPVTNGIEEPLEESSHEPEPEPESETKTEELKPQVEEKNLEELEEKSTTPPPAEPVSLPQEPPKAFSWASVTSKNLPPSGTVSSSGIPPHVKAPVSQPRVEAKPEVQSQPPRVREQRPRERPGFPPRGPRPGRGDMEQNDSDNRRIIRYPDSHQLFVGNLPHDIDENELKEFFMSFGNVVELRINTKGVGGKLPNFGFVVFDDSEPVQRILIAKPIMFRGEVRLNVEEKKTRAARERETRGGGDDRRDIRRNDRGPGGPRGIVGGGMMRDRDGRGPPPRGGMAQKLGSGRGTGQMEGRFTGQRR
Endothelial PAS domain-containing protein 1 (Homo sapiens), Q99814 F540L, sequence (Q99814 whole entry F540L, the tested form may be a part): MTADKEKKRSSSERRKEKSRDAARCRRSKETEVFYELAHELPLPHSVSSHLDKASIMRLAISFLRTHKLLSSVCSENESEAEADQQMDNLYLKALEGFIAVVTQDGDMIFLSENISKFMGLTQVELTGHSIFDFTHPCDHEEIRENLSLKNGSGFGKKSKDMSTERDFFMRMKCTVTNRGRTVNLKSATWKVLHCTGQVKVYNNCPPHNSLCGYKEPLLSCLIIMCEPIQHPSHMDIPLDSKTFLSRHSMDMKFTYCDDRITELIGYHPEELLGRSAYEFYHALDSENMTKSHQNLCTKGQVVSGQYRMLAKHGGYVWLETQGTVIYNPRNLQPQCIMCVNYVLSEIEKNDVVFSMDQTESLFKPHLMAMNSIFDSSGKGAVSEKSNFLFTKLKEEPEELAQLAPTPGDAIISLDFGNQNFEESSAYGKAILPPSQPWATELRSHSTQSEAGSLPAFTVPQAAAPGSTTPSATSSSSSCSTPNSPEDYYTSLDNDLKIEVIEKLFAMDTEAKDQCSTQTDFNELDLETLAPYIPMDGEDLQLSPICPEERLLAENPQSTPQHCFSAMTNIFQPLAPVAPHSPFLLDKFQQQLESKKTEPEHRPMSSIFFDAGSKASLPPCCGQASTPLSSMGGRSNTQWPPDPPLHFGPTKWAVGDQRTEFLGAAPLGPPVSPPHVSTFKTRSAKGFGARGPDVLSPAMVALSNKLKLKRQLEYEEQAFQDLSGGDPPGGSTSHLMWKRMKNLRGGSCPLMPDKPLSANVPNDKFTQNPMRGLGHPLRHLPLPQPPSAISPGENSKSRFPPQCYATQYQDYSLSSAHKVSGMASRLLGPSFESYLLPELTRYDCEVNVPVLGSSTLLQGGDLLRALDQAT
ADP-ribosylation factor-like protein 13B (Homo sapiens), Q3SXY8 N255K, sequence (Q3SXY8 whole entry N255K): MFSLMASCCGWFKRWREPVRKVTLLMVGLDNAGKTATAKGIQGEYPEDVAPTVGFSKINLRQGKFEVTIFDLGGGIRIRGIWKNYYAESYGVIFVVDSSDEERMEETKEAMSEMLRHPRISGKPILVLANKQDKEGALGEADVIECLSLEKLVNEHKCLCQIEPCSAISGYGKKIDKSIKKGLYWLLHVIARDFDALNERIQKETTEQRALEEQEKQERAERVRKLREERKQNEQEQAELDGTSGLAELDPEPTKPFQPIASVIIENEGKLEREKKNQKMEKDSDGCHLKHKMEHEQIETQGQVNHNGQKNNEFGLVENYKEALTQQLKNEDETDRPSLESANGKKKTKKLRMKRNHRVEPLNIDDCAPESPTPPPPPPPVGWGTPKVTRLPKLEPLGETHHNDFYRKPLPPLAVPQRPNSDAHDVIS
eps15_human EPS15, sequence (P42566 whole entry): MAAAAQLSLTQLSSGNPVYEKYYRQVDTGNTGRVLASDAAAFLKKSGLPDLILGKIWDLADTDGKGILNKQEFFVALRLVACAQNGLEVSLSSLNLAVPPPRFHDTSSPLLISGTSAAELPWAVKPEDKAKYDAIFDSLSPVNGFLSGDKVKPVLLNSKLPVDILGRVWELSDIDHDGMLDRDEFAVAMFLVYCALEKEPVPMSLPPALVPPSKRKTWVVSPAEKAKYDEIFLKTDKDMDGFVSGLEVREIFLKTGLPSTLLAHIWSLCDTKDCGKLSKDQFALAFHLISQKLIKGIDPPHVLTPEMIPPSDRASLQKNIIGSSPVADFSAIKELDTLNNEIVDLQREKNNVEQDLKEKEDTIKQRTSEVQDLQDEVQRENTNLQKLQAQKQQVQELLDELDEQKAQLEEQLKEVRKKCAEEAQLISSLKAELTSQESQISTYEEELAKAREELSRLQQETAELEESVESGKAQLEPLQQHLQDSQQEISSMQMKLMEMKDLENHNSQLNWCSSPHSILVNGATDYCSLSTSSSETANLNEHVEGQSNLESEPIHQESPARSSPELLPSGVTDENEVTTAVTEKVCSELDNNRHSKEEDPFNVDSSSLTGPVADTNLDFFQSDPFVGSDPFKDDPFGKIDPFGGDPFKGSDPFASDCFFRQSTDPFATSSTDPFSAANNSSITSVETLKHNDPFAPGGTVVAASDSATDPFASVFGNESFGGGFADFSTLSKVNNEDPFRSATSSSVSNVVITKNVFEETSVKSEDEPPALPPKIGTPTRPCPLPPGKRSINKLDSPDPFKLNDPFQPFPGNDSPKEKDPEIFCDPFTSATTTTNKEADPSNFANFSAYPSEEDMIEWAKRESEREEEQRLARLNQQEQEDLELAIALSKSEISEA

## CREB-binding protein (Homo sapiens), Q92793 K13E
ima3_human KPNA4 [1]
  effect of a mutation on the interaction: disrupting interaction strength
ima3_human KPNA4 [2]
  effect of a mutation on the interaction: causing an interaction

## ADP-ribosylation factor-like protein 13B (Homo sapiens), Q3SXY8 N255K
eps15_human EPS15
  effect of a mutation on the interaction: decreasing interaction strength

## Voltage-dependent T-type calcium channel subunit alpha-1H (Homo sapiens), O95180 P684H
src_human SRC
  effect of a mutation on the interaction: decreasing interaction strength

## Titin (Homo sapiens), Q8WZ42 I34306T
oxsr1_human OXSR1
  effect of a mutation on the interaction: decreasing interaction strength

## Voltage-dependent T-type calcium channel subunit alpha-1H (Homo sapiens), O95180 P684R
src_human SRC
  effect of a mutation on the interaction: decreasing interaction strength

## Titin (Homo sapiens), Q8WZ42 I34306N
oxsr1_human OXSR1
  effect of a mutation on the interaction: decreasing interaction strength

## Histone-lysine N-methyltransferase, H3 lysine-36 specific (Homo sapiens), Q96L73 L1797P
G3BP2
  effect of a mutation on the interaction: decreasing interaction strength

## Endothelial PAS domain-containing protein 1 (Homo sapiens), Q99814 F540L
terf1_human TERF1
  effect of a mutation on the interaction: decreasing interaction strength

## Titin (Homo sapiens), Q8WZ42 I34306S
oxsr1_human OXSR1
  effect of a mutation on the interaction: decreasing interaction strength

— IntAct's records for PubMed 39009827
